From patent US20240043820

What was measured:
[1] = target: SpCas9 Mut 4110 N767E,Q771R,K772Q,K775D,R780K,Q844R,L847M,K848T,D850N,I852F,K913E,G915R,F916W,I917V,V922M (Streptococcus pyogenes) (UniProt Q99ZW2); assay: cell_activity; conditions: yeast survival assay; PAM not stated
[2] = target: SpCas9 Mut 2.2 (TurboCas9) V842L,Q844R,F846Y,L847M,I852F (Streptococcus pyogenes) (UniProt Q99ZW2); assay: cell_activity; conditions: HEK293T; 5% alleles unedited vs 36% for WT; PAM not stated

HIS3 gRNA ; HIS3 target site gave an activity (fold vs WT SpCas9) [1] of 3.9.

ADE2 gRNA ; ADE2 target site showed an activity (fold vs WT SpCas9) [1] of 2.

In the case of VEGFA gRNA ; VEGFA target site, the activity (fold vs WT SpCas9) [2] was 1.5.
